Molecular target: PRDM16 R998Q (Mus musculus, UniProt A2A935 SEQ:1-1275, R998Q)
Experiment: EMSA; R998Q completely loses DNA binding; same buffer as wild type
Conditions: label: 32P end label

Sequence of PRDM16 R998Q (A2A935 other isoform, or with tags, fused parts or gaps R998Q | R998Q R998Q): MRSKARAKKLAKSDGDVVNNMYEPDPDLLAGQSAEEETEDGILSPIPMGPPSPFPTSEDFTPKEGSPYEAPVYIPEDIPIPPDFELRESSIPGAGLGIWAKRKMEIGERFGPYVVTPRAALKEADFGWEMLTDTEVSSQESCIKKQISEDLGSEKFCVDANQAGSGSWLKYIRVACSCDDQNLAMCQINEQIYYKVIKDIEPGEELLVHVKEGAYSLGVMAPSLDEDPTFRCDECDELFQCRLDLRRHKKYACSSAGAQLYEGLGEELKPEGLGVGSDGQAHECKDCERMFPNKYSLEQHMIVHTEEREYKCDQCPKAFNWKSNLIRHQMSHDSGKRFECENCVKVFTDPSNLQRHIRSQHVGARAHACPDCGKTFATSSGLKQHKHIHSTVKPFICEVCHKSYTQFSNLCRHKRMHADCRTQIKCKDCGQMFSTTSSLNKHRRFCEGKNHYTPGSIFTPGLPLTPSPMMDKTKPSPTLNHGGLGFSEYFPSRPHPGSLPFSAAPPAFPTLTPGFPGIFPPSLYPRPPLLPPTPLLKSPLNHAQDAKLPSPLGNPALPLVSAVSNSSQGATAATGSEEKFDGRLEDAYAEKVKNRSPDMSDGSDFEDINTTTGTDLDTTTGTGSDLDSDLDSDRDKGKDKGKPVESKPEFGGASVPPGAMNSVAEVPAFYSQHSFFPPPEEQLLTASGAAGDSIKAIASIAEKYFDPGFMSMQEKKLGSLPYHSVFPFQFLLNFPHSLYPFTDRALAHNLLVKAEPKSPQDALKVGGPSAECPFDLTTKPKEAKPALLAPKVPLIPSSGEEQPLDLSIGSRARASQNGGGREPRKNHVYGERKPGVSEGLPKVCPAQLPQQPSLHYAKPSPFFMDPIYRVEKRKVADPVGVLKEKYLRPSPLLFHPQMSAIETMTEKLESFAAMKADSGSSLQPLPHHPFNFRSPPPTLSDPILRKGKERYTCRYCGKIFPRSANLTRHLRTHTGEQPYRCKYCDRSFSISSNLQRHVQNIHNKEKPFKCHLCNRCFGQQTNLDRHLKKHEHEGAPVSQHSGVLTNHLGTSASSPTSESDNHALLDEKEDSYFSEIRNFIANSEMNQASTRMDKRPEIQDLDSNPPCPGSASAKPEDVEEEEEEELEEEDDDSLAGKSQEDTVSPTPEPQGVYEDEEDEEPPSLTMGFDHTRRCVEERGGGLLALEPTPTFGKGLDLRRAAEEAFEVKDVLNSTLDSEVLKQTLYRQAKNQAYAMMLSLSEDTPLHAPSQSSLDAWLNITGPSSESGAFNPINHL

B1: PRDM16 consensus binding site EMSA probe (dsDNA)
DNA 1: GATCCGACAAGATAAGATAAGGATCTATAAGAAGATGAGGTATG
DNA 2: CATACCTCATCTTCTTATAGATCCTTATCTTATCTTGTCGGATC
B1: no binding.

From patent US20110059051, “Molecular Control of Brown Fat Differentiation and Engergy Expenditure” (Dana-Farber Cancer Institute, Inc., published 2011)
